Results from the supplement of paper PMC9233669.
This sample holds only a part of the variants without activity.

Tests used:
biotinyl-Met-oxazolone = experiment: self-aminoacylation, catalytic enhancement (BMO) (fold over background); higher = more active; k-Seq, kA / k0A0; sequences stand for … in GGGAAUGGAUCCACAUCUACGAAUUC…UUCACUGCAGACUUGACGAAGCUG
In short: (§1)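 Each biotinyl-aminoacyl-oxazolone, at 2–1250 μM, was incubated with mutagenized RNA pools (0.43 μM) carrying a 21-nt variable region. The 50 μL reactions contained HEPES/NaCl/KCl/MgCl2/CaCl2 buffer with 5% acetonitrile at pH 6.9–7.0 and ran for 90 minutes at room temperature. After streptavidin capture, RNA was measured by qPCR in triplicate and by Illumina sequencing, and catalytic enhancement was calculated as median kA over the uncatalyzed rate from a pseudo-first-order fit of per-sequence fraction reacted.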

biotinyl-Trp-oxazolone = experiment: self-aminoacylation, catalytic enhancement (BWO) (fold over background); higher = more active; k-Seq, kA / k0A0; sequences stand for … in GGGAAUGGAUCCACAUCUACGAAUUC…UUCACUGCAGACUUGACGAAGCUG
In short: as §1

biotinyl-Ile-oxazolone = experiment: self-aminoacylation, catalytic enhancement (BIO) (fold over background); higher = more active; k-Seq, kA / k0A0; sequences stand for … in GGGAAUGGAUCCACAUCUACGAAUUC…UUCACUGCAGACUUGACGAAGCUG
In short: as §1

biotinyl-Val-oxazolone = experiment: self-aminoacylation, catalytic enhancement (BVO) (fold over background); higher = more active; k-Seq, kA / k0A0; sequences stand for … in GGGAAUGGAUCCACAUCUACGAAUUC…UUCACUGCAGACUUGACGAAGCUG
In short: as §1

biotinyl-Leu-oxazolone = experiment: self-aminoacylation, catalytic enhancement (BLO) (fold over background); higher = more active; k-Seq, kA / k0A0; sequences stand for … in GGGAAUGGAUCCACAUCUACGAAUUC…UUCACUGCAGACUUGACGAAGCUG
In short: as §1

biotinyl-Phe-oxazolone = experiment: self-aminoacylation, catalytic enhancement (BFO) (fold over background); higher = more active; k-Seq, kA / k0A0; sequences stand for … in GGGAAUGGAUCCACAUCUACGAAUUC…UUCACUGCAGACUUGACGAAGCUG
In short: as §1

| Sequence | self-aminoacylation (biotinyl-Met-oxazolone) | self-aminoacylation (biotinyl-Trp-oxazolone) | self-aminoacylation (biotinyl-Ile-oxazolone) | self-aminoacylation (biotinyl-Val-oxazolone) | self-aminoacylation (biotinyl-Leu-oxazolone) | self-aminoacylation (biotinyl-Phe-oxazolone) |
| --- | --- | --- | --- | --- | --- | --- |
| GUUACACUGGUCAUCGAGUGA [Fam2.1 aminoacylation ribozyme variant] | 6.79 | 8.81 | 4.91 | 4.18 | 6.76 | 28.9 |
| AUUCACAUAGGUCAUCGGAUG [Fam2.2 aminoacylation ribozyme variant] | 0.698 | 0.403 | 0.903 | 0.857 | 0.649 | 0.549 |
| AUUACCCUGGUCACGGAGUGA [Fam2.1 aminoacylation ribozyme variant] | 7.34 | 8.54 | 3.43 | 3.92 | 7.68 | 37.5 |
| AUUCCCCUGAUCAUCGAGUGA [Fam2.1 aminoacylation ribozyme variant] | 6.39 | 7.4 | 3.81 | 4.2 | 5.83 | 8.85 |
| UUACUUCAAACAAUCGGACUG [Fam1A.1 aminoacylation ribozyme variant] | 1.26 | 4.92 | 1.08 | 0.854 | 0.969 | 7.94 |
| AUUACCCUGGUCAACGAGUGC [Fam2.1 aminoacylation ribozyme variant] | 0.848 | 0.892 | 0.908 | 0.903 | 1.01 | 0.478 |
| CCACACUUCAAGCAAUCGACC [Fam1B.1 aminoacylation ribozyme variant] | 0.518 | 0.447 | 0.623 | 0.751 | 0.399 | 1.25 |
| AUUCACCUAGGCCACCGGGUG [Fam2.2 aminoacylation ribozyme variant] | 5.04 | 4.16 | 3.83 | 3.27 | 6.51 | 13.6 |
| CCACACUUCAAGCAUUGGGUC [Fam1B.1 aminoacylation ribozyme variant] | 1.03 | 0.956 | 1.04 | 1.4 | 0.83 | 0.918 |
| CCAUACUUCAAGCAAUCCGUC [Fam1B.1 aminoacylation ribozyme variant] | 0.829 | 0.766 | 1.15 | 1.12 | 0.949 | 0.96 |
| AUUAACCUGGUGAUCGAGUGA [Fam2.1 aminoacylation ribozyme variant] | 6.03 | 8.53 | 3.62 | 3.16 | 6.66 | 25.7 |
| AUGUUUGCUAAUUGUCGCAAG [Fam3.1 aminoacylation ribozyme variant] | 1.41 | 2.13 | 1.38 | 1.17 | 1.64 | 1.81 |
| ACGUUUGCUAAUAGUCGCAAC [Fam3.1 aminoacylation ribozyme variant] | 0.972 | 0.859 | 1.36 | 1.18 | 1.43 | 1.42 |
| AUUACCCAGGUCAUCGAGUGC [Fam2.1 aminoacylation ribozyme variant] | 0.643 | 0.852 | 0.777 | 0.958 | 0.919 | 0.417 |
| CUACUUAAUACAAUCGGUCUG [Fam1A.1 aminoacylation ribozyme variant] | 0.89 | 0.631 | 0.782 | 0.849 | 0.761 | 0.835 |
| AAGUUGGCUAAUGGUCGCAAG [Fam3.1 aminoacylation ribozyme variant] | 1.28 | 1.23 | 1.29 | 1.4 | 1.1 | 1.01 |
| CUACUUCGAACAAUCGUUCUG [Fam1A.1 aminoacylation ribozyme variant] | 0.453 | 0.368 | 0.432 | 0.49 | 0.457 | 0.268 |
| CUUCACCUAGGUCCUCGGGUG [Fam2.2 aminoacylation ribozyme variant] | 6.74 | 6.69 | 3.4 | 4.26 | 7.45 | 34.1 |
| AUUACCCUAGUCAUCGAGUAA [Fam2.1 aminoacylation ribozyme variant] | 1.36 | 0.823 | 1.28 | 1.24 | 1.19 | 0.698 |
| CCACACUUCAAGCAAUAGGCC [Fam1B.1 aminoacylation ribozyme variant] | 0.9 | 0.71 | 0.939 | 1.04 | 1.05 | 0.88 |
| AAAUUUGCUCAUAGUCGCAAG [Fam3.1 aminoacylation ribozyme variant] | 2.13 | 1.56 | 1.76 | 1.57 | 1.55 | 2.13 |
| AUAUUUCAAACAAUCGGUCUG [Fam1A.1 aminoacylation ribozyme variant] | 0.844 | 3.15 | 0.897 | 0.834 | 0.891 | 5.45 |
| AGGUUUGCUAAUAGUCGCAAC [Fam3.1 aminoacylation ribozyme variant] | 1.15 | 1.43 | 1.26 | 1.05 | 1.13 | 1.52 |
| AUCACCCAGGUCAUCGAGUGA [Fam2.1 aminoacylation ribozyme variant] | 7.75 | 8.46 | 4.04 | 4.61 | 8.69 | 30.4 |
| AUUCACCUACGUCAUGGGGUG [Fam2.2 aminoacylation ribozyme variant] | 2.5 | 1.67 | 1.79 | 2.01 | 2.62 | 11 |
| CUUCUUCAAACAAUCGGUCUG [Fam1A.1 aminoacylation ribozyme variant] | 0.996 | 17.6 | 0.898 | 0.902 | 1.41 | 35.5 |

| Sequence | self-aminoacylation (biotinyl-Met-oxazolone) | self-aminoacylation (biotinyl-Trp-oxazolone) | self-aminoacylation (biotinyl-Ile-oxazolone) | self-aminoacylation (biotinyl-Val-oxazolone) | self-aminoacylation (biotinyl-Leu-oxazolone) | self-aminoacylation (biotinyl-Phe-oxazolone) |
| --- | --- | --- | --- | --- | --- | --- |
| AUUCACCUAGGUCAUCGGGAU [Fam2.2 aminoacylation ribozyme variant] | 6.11 | 5.12 | 3.59 | 3.4 | 9.22 | 18.7 |
| CCACACUUCAAUCAAUCGAUC [Fam1B.1 aminoacylation ribozyme variant] | 0.463 | 0.592 | 0.523 | 0.609 | 0.512 | 1.25 |
| CCACCCUACAAGCAAUCGGUC [Fam1B.1 aminoacylation ribozyme variant] | 1.3 | 1.16 | 1.36 | 1.17 | 1.19 | 0.931 |
| CUACUUCAAACAAUCGCUCAG [Fam1A.1 aminoacylation ribozyme variant] | 0.679 | 0.671 | 0.884 | 0.689 | 0.52 | 1 |
| AGUACCCUCGUCAUCGAGUGA [Fam2.1 aminoacylation ribozyme variant] | 3.19 | 3.06 | 2.37 | 2.08 | 3.97 | 18.8 |
| AUUCACCCAGGUCCUCGGGUG [Fam2.2 aminoacylation ribozyme variant] | 5.45 | 5.85 | 3.22 | 3.89 | 6.67 | 35.5 |
| AAUACCCUGGUCAACGAGUGA [Fam2.1 aminoacylation ribozyme variant] | 4.19 | 5.89 | 2.88 | 2.53 | 4.32 | 11.1 |
| CUACUUCAAACACUCGGCCUG [Fam1A.1 aminoacylation ribozyme variant] | 1.59 | 2.01 | 1.96 | 2.38 | 2.05 | 1.38 |
| GUUACCCUGGGCAUCGAGUGA [Fam2.1 aminoacylation ribozyme variant] | 8.99 | 10.1 | 4.53 | 4.16 | 8.7 | 68.6 |
| AAGUUGGCAAAUAGUCGCAAG [Fam3.1 aminoacylation ribozyme variant] | 1.04 | 2.03 | 1.57 | 1.41 | 1.32 | 2.07 |
| AUUACCCUGGUCAUAGAGCGA [Fam2.1 aminoacylation ribozyme variant] | 1.03 | 1.18 | 1.05 | 1.04 | 1.04 | 1.37 |
| CCACACUUCGAGCAAUCCGUC [Fam1B.1 aminoacylation ribozyme variant] | 1.03 | 1.4 | 1.28 | 1.49 | 1.08 | 0.498 |
| AUUCACCUAGGUCAUCUUGUG [Fam2.2 aminoacylation ribozyme variant] | 1.13 | 0.594 | 0.835 | 1.04 | 1.18 | 1.37 |
| CUAUUUCAAACAAUCGGGCUG [Fam1A.1 aminoacylation ribozyme variant] | 1.08 | 1.88 | 1.24 | 1 | 0.844 | 2.05 |
| AAGUUUGCGAAUAGUUGCAAG [Fam3.1 aminoacylation ribozyme variant] | 1.2 | 1.16 | 0.915 | 0.803 | 0.661 | 0.975 |
| AUUCACCUACGUCUUCGGGUG [Fam2.2 aminoacylation ribozyme variant] | 3.36 | 3.34 | 2.44 | 2.81 | 4.28 | 24 |
| AGUACCCUGGUGAUCGAGUGA [Fam2.1 aminoacylation ribozyme variant] | 5.62 | 5.32 | 2.76 | 2.92 | 5.58 | 30.2 |
| CUACUUCAAACAAUCGAGCUG [Fam1A.1 aminoacylation ribozyme variant] | 0.59 | 0.396 | 0.85 | 0.706 | 0.481 | 0.816 |
| CUACUUCAAACCAUCCGUCUG [Fam1A.1 aminoacylation ribozyme variant] | 0.891 | 0.802 | 0.891 | 1.14 | 0.721 | 0.573 |
| GUCCUUCAAACAAUCGGUCUG [Fam1A.1 aminoacylation ribozyme variant] | 1.35 | 11 | 1.31 | 1.52 | 1.49 | 11.9 |
| AUUCACCCAGGUCACCGGGUG [Fam2.2 aminoacylation ribozyme variant] | 5.66 | 4.89 | 3.47 | 3.77 | 5.75 | 39.4 |
| AUUACCCAGGUCAUCGAGUGU [Fam2.1 aminoacylation ribozyme variant] | 2.74 | 3.39 | 1.65 | 2.06 | 2.71 | 2.45 |
| CCACACUUCAAGCAUUAGGUC [Fam1B.1 aminoacylation ribozyme variant] | 0.399 | 0.516 | 0.501 | 0.645 | 0.504 | 0.818 |
| AUCCACCUAGGUAAUCGGGUG [Fam2.2 aminoacylation ribozyme variant] | 3.45 | 5.34 | 3 | 3.1 | 4.49 | 27.6 |
| AUUACCCGGGUCACCGAGUGA [Fam2.1 aminoacylation ribozyme variant] | 19.3 | 19.5 | 6.79 | 8.28 | 21.4 | 145 |
